Patent US20090075314A1 (DUKE UNIVERSITY, published 2009)
No end group written: not given here.

What was measured:
[1] = target: T1, human gastrin/CCK-B receptor (human, UniProt P32239 1-447); assay: cell-based or functional assay
T1 construct: Permanently expressed with arrestin-GFP in HEK-293 cells (Clone A); also called gastrin receptor; homo sapiens cholecystokinin B receptor
T1 sequence: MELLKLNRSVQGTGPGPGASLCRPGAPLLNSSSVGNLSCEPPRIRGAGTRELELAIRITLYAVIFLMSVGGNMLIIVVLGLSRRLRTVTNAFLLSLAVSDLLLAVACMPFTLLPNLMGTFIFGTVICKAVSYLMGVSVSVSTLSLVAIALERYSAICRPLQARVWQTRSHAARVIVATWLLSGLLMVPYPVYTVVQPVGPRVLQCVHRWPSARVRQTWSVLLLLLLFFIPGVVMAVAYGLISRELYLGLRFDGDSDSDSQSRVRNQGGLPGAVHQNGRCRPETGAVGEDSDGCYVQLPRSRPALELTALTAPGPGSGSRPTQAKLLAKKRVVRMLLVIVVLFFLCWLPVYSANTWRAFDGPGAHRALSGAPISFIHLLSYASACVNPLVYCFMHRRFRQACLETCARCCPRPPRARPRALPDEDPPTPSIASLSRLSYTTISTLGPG

[2] = target: T1, human gastrin/CCK-B receptor; assay: competitive displacement of [3H]CCK-8 from Clone A by hG17
Procedure: (§1) Membrane Preparation/Binding—All steps were performed at 4° C. Membrane binding was performed in triplicate as described in Shetzline et al., J. Biol. Chem. 273:[…] (1998). Membrane fractions were assayed immediately or stored at −80° C. […] Data were analyzed using Graph Pad-Prism.
(§2) Data are presented as mean±SEM.

[3] = target: T1, human gastrin/CCK-B receptor; assay: derived from competitive displacement of [3H]CCK-8 from Clone A by hG17
Procedure: as §1, §2

Molecule: pentagastrin (peptide)
- arrestin-GFP translocation (TI/TF, two hours at 37° C.) [1]: 2.4 nM

Molecule: QGPWLEEEEEAYGWMDF-NH2 (peptide, UniProt P01350 76-92, looked up, domain: gastrin-17; also called hGl 7) [synthetic human gastrin-17 peptide (hG17)]
- EC50 [2]: 28 nM
- Kd [3]: 17 nM
